Where a chain is given by its changes, count along the chain named. Numbers in names are those of the source.
T1: human FcγRIIb extracellular domain, His-tagged (human, UniProt P31994 43-217)
T1 construct: also called FcgRIIb; not shown: C-terminal His-tag
T1 sequence: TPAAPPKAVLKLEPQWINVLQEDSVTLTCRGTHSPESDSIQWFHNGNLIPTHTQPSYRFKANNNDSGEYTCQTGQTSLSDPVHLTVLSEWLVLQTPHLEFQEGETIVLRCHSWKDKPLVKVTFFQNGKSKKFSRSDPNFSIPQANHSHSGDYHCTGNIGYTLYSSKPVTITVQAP

T2: cynomolgus monkey FcγRIIa1 extracellular domain, His-tagged (cynomolgus monkey)
T2 construct: also called cyno FcγRIIa1; cynoFcgRIIa1; not shown: C-terminal His-tag
T2 chain: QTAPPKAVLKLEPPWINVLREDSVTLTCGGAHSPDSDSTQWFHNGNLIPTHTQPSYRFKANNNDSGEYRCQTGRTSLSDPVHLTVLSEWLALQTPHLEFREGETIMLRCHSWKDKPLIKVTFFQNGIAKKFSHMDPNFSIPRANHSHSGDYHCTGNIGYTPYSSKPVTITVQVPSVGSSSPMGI

T3: cynomolgus monkey FcγRIIa2 extracellular domain, His-tagged (cynomolgus monkey)
T3 construct: also called cyno FcγRIIa2; cynoFcgRIIa2; not shown: C-terminal His-tag
T3 chain: T2 chain with P95T, T121A, I127K, A128S, K130N, D135N, R142Q

T4: cynomolgus monkey FcγRIIa3 extracellular domain, His-tagged (cynomolgus monkey)
T4 construct: also called cyno FcγRIIa3; cynoFcgRIIa3; not shown: C-terminal His-tag
T4 chain: T2 chain with P95T, T121A, A128S, H133P, D135N

T5: cynomolgus monkey FcγRIIIaS extracellular domain, His-tagged (cynomolgus monkey, UniProt Q8SPW2 21-206 at identity 1.00))
T5 construct: also called cyno FcγRIIIaS; cynoFcγRIIIaS; not shown: C-terminal His-tag
T5 chain: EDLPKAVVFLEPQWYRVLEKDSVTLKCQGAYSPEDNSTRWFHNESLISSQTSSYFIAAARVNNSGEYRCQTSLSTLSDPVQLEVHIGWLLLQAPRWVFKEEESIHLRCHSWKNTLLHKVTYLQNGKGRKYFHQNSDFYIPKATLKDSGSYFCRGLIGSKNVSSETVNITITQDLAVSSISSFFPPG

T6: cynomolgus monkey FcγRIIb extracellular domain, His-tagged (cynomolgus monkey)
T6 construct: also called cyno FcγRIIb; cynoFcγRIIb; not shown: C-terminal His-tag
T6 chain: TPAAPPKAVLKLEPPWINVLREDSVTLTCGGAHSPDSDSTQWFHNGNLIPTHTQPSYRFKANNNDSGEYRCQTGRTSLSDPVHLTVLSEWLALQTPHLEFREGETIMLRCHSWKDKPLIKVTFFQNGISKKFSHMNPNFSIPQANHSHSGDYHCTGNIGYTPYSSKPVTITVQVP

T7: human FcγRIIaH extracellular domain, His-tagged (human, UniProt P12318 34-217)
T7 construct: also called human FcγRIIa (type H); FcgRIIaH; not shown: C-terminal His-tag
T7 sequence: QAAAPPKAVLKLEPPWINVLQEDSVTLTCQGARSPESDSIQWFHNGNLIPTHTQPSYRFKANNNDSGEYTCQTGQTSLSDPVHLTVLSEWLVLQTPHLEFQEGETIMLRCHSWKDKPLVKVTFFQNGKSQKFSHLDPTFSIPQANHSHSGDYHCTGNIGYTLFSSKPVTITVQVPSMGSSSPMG

T8: human FcγRIIaR extracellular domain, His-tagged (human, UniProt P12318 34-217)
T8 construct: also called human FcγRIIa (type R); FcgRIIaR; not shown: C-terminal His-tag
T8 chain: T7 sequence with H134R

B1: M103205H795-MY066/M103202L889-SK1 (antibody, human IgG1, kappa)
heavy: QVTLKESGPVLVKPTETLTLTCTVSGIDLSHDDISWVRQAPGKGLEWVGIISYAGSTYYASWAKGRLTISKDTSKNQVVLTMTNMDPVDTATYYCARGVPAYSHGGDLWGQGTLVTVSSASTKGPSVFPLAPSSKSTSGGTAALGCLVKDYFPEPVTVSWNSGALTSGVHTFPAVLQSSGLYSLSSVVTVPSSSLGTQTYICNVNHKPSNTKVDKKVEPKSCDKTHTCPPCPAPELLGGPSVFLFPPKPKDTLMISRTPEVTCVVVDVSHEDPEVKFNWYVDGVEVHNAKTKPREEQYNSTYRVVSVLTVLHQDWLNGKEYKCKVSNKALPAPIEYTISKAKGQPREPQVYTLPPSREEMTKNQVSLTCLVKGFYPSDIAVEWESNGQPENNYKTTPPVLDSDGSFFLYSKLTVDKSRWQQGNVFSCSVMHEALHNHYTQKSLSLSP
light: DIVMTQSPATLSLSPGERATLSCTSSQSVYHANWLSWFQQKPGQPPKLLIYWASTLAYGVPSRFSGSGSGTDFTLTISSLQPEDAATYYCAGGYGGGRYAFGQGTKVEIKRTVAAPSVFIFPPSDEQLKSGTASVVCLLNNFYPREAKVQWKVDNALQSGNSQESVTEQDSKDSTYSLSSTLTLSKADYEKHKVYACEVTHQGLSSPVTKSFNRGEC
notes: Substitution introduced into M103205H795-SG1 and expressed with M103202L889-SK1 as light chain; also called K334Y variant of MS1032LO06-SG1
B2: M103205H795-MY015/M103202L889-SK1 (antibody, human IgG1, kappa)
heavy: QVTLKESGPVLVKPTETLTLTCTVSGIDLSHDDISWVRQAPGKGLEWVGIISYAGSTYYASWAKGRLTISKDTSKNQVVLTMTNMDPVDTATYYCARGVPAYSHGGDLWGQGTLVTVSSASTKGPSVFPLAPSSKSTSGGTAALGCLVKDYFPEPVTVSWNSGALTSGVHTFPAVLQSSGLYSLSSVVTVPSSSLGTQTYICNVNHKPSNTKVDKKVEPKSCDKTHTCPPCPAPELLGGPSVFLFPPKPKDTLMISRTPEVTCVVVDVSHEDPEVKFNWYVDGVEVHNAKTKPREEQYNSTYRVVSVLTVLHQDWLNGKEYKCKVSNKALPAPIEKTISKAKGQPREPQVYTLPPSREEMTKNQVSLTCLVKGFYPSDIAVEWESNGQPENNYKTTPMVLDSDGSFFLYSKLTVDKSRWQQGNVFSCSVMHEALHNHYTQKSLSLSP
light: B1 light
notes: Substitution introduced into M103205H795-SG1 and expressed with M103202L889-SK1 as light chain; also called P396M variant of MS1032LO06-SG1
B3: M103205H795-MY067/M103202L889-SK1 (antibody, human IgG1, kappa)
heavy: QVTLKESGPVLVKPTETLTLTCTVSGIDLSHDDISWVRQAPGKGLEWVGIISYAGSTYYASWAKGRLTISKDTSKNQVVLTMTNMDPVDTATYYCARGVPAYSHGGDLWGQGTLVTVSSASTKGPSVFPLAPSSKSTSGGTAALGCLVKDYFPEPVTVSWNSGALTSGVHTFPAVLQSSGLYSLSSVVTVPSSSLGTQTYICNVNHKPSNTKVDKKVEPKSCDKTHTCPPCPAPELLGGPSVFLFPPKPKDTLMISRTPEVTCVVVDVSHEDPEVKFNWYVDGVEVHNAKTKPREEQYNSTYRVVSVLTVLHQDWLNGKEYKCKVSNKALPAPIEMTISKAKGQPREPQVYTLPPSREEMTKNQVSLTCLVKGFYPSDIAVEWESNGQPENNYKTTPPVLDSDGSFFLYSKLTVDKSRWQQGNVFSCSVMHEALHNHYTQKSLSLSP
light: B1 light
notes: Substitution introduced into M103205H795-SG1 and expressed with M103202L889-SK1 as light chain; also called K334M variant of MS1032LO06-SG1

Each binder was assayed against T1, human FcγRIIb extracellular domain, … (assay: SPR (BIACORE), antibody captured on chip, FcγR as analyte, 25 °C; KD of SG1 divided by KD of the variant).
Description: (§1) After the measurement, the antibody captured on the chip was washed off by allowing reaction with 10 mM glycine-HCl, pH1.5 and 25 mM NaOH so that the chip was regenerated and used repeatedly. The sensorgrams obtained as measurement results were analyzed by the 1:1 Langmuir binding model using the BIACORE® Evaluation Software to calculate the binding rate constant ka (L/mol/s) and dissociation rate constant kd (l/s), and the dissociation constant KD (mol/L) was calculated from these values. […] Regarding such interactions, KD values were calculated using the following 1:1 binding model described in BIACORE® T100 Software Handbook BR1006-48 Edition AE.
(§2) The behavior of interacting molecules according to the 1:1 binding model on BIACORE® can be described by Equation 1: Req=C·R max/(KD+C)+RI, wherein, Req is a plot of steady-state binding levels to analyte concentration. C is concentration, RI is bulk refractive index contribution in the sample, and Rmax is analyte binding capacity of the surface. When this equation is rearranged, KD can be expressed as Equation 2: KD=C·Rmax/(Req−RI)−C. KD can be calculated by substituting the values of Rmax, RI, and C into Equation 1 or Equation 2. From the current measurement conditions, RI=0, C=2 μmol/L can be used.

| KD fold for humanFcgRs (SG1 = 1) | Binder |
| --- | --- |
| 1.6 fold | B1 |
| 2.9 fold | B2 |
| 1.6 fold | B3 |

Biological target: T2, cynomolgus monkey FcγRIIa1 …
Test: as above
Description: as §1, §2

| KD fold for cynoFcgRs (SG1 = 1) | Binder |
| --- | --- |
| 1.5 fold | B1 |
| 2.5 fold | B2 |
| 1.5 fold | B3 |

Biological target: T3, cynomolgus monkey FcγRIIa2 …
Test: as above
Description: as §1, §2

| KD fold for cynoFcgRs (SG1 = 1) | Binder |
| --- | --- |
| 2 fold | B1 |
| 3.4 fold | B2 |
| 2.2 fold | B3 |

Biological target: T4, cynomolgus monkey FcγRIIa3 …
Test: as above
Description: as §1, §2

| KD fold for cynoFcgRs (SG1 = 1) | Binder |
| --- | --- |
| 2.5 fold | B1 |
| 3.6 fold | B2 |
| 2.5 fold | B3 |

Biological target: T5, cynomolgus monkey FcγRIIIaS …
Test: as above
Description: as §1, §2

| KD fold for cynoFcgRs (SG1 = 1) | Binder |
| --- | --- |
| 2.25 fold | B1 |
| 3.8 fold | B2 |
| 3.6 fold | B3 |

What follows are binders tested against T9, human FcγRIIIaV extracellular domain, His-tagged (human, UniProt P08637 17-208) in the same assay as above.
T9 construct: also called human FcγRIIIa (V158 allotype); FcgRIIIaV; not shown: C-terminal His-tag
T9 sequence (P08637 17-208 F176V): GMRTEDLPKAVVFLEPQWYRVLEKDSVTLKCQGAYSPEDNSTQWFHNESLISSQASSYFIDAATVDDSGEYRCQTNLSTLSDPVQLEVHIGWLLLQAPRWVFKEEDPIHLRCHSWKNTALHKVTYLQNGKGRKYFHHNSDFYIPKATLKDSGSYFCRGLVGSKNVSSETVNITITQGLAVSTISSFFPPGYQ
Description: as §1, §2

| KD fold for humanFcgRs (SG1 = 1) | Binder |
| --- | --- |
| 2.79 fold | B1 |
| 3.38 fold | B2 |
| 4.05 fold | B3 |

Biological target: T6, cynomolgus monkey FcγRIIb extracellular …
Test: as above
Description: as §1, §2

| KD fold for cynoFcgRs (SG1 = 1) | Binder |
| --- | --- |
| 1.3 fold | B1 |
| 3 fold | B2 |
| 1.6 fold | B3 |

The binders below were run against T7, human FcγRIIaH extracellular domain, … in the same assay as above.
Description: as §1, §2

| KD fold for humanFcgRs (SG1 = 1) | Binder |
| --- | --- |
| 1.1 fold | B1 |
| 2.1 fold | B2 |
| 1.3 fold | B3 |

Biological target: T8, human FcγRIIaR extracellular domain, …
Test: as above
Description: as §1, §2

| KD fold for humanFcgRs (SG1 = 1) | Binder |
| --- | --- |
| 1.1 fold | B1 |
| 3.4 fold | B2 |
| 1.4 fold | B3 |

Reference: patent US20200317768A1 (published 2020)
